Data published in publication PMC2396876 (The EMBO Journal, 2008).
Where “and” joins values, the source holds several entries; their conditions need not be identical. Identical values can stand only once.

What was measured:
[1] = target: N‐CEACAM1, the N‐terminal domain of human carcinoembryonic antigen‐related cell adhesion molecule 1 (human); experiment: AUC
[2] = target: UspA1^(527–665), recombinant fragment of the Moraxella catarrhalis MX2 adhesin UspA1 (Moraxella catarrhalis (strain MX2)); experiment: AUC
[3] = target: UspA1^(527–665), recombinant fragment of the Moraxella catarrhalis MX2 adhesin UspA1 (Moraxella catarrhalis (strain MX2)); experiment: ITC
[4] = target: UspA1^(527–665) A568Q (Moraxella catarrhalis (strain MX2)); experiment: western blot of oligomers
[5] = target: UspA1^(527–665) A588Q (Moraxella catarrhalis (strain MX2)); experiment: western blot of oligomers
[6] = target: UspA1^(527–665) A590Q (Moraxella catarrhalis (strain MX2)); experiment: western blot of oligomers
[7] = target: UspA1^(527–665) L583A (Moraxella catarrhalis (strain MX2)); experiment: western blot of oligomers
[8] = target: UspA1^(527–665) M586A (Moraxella catarrhalis (strain MX2)); experiment: western blot of oligomers
[9] = target: UspA1^(527–665), recombinant fragment of the Moraxella catarrhalis MX2 adhesin UspA1 (Moraxella catarrhalis (strain MX2)); experiment: crystal structure
[10] = target: UspA1^(527–665) M586A (Moraxella catarrhalis (strain MX2)); experiment: far-Western, overlay or dot blot
[11] = target: UspA1^(527–665) M586A/A588Q (Moraxella catarrhalis (strain MX2)) (UniProt Q9XD56); experiment: far-Western, overlay or dot blot
[12] = target: the molecule itself; experiment: western blot of oligomers

## N‐CEACAM1, the N‐terminal domain of human carcinoembryonic antigen‐related cell adhesion molecule 1 (domain or fragment)
[1]
  stoichiometry N (chains in the oligomer): 2
[2]
  stoichiometry N (N‐CEACAM1 per UspA1^(527–665) trimer): 2
[3]
  Kd: 35 nM
  stoichiometry N (N‐CEACAM1 per UspA1^(527–665) trimer): 2.1 and 1.9

## UspA1^(527–665) A568Q (domain or fragment)
[4]
  stoichiometry N (chains in the oligomer): 3

## UspA1^(527–665) A588Q (domain or fragment)
[5]
  stoichiometry N (chains in the oligomer): 3

## UspA1^(527–665) A590Q (domain or fragment)
[6]
  stoichiometry N (chains in the oligomer): 3

## UspA1^(527–665) L583A (domain or fragment)
[7]
  stoichiometry N (chains in the oligomer): 3

## UspA1^(527–665) M586A (domain or fragment)
[8]
  stoichiometry N (chains in the oligomer): 3

## UspA1^(527–665), recombinant fragment of the Moraxella catarrhalis MX2 adhesin UspA1 (domain or fragment)
[9]
  stoichiometry N (chains in the oligomer): 3
[2]
  stoichiometry N (chains in the oligomer): 3

## soluble CEACAM1‐Fc receptor (from UniProt P13688 35-428) (Fc fusion)
[10]
  decrease in CEACAM1 binding (densitometry, against native UspA1^(527–665)): 14.8%
[11]
  decrease in CEACAM1 binding (densitometry, against native UspA1^(527–665)): 90.4%

B1: UspA1^(527–665) M586A/A588Q (domain or fragment, Moraxella catarrhalis (strain MX2), UniProt Q9XD56 527-665, looked up)
chain: ASSANTDRIATAELGIAENKKDAQIAKAQANENKDGIAKNQADIQLHDKKITNLGILHSAVQRAVGNNTQGVATNKADIAKNQADIANNIKNIYELAQQQDQHSSDIKTLAKVSAANTDRIAKNKAEADASFETLTKNQ
[12]
  stoichiometry N: 3 chains in the oligomer
